Data as given in US11111484B2, “Streptococcus bacteriophage lysins for detection and treatment of gram positive bacteria” (priority 2011, dated 2021).
“And” between values parts separate entries of the source, which are not always exact repeats. Equal values may be shown once. “Also recorded” adds a separate entry of the source. Read-outs that look alike come from different tables or passages of the source.

Key:
S. uberis 27598 = assay: ΔPlySs1 OD600 lysis, 1 hr, optimal buffering conditions; format: cell-based
S. epidermidis HN1292 = assay: as above; format: cell-based, Staphylococcus epidermidis
E. faecium EFSK2 = assay: as above; format: cell-based, Enterococcus faecium
S. mutans U159 = assay: as above; format: cell-based, Streptococcus mutans
B. anthracis ΔSterne = format: cell-based, Bacillus anthracis
S. dysgalactiae GGS = assay: ΔPlySs1 OD600 lysis, 1 hr, optimal buffering conditions; format: cell-based, Streptococcus dysgalactiae
S. oralis 35037 = assay: as above; format: cell-based, Streptococcus oralis
MRSA [1] = assay: MIC studies; format: cell-based, Staphylococcus aureus
Protocol: The Wiegand, et al. protocol to determine minimum inhibitory concentrations was followed with adjustments detailed below. A final suspension of ≈5×10^5 cells/ml in MHB (or BHI for S. pyogenes) resulted after Sterile-filtered lysin or vehicle was added at the appropriate concentration. These tests were distributed within a 96-well microtiter plate. The MIC's were determined, in this experiment, by detection of pellet formation in the bottom of rounded polysterene plate wells. They were also corroborated colorimetrically with alamarBlue®.

Listeria strains = assay: PlySs2 lytic activity against species and strains (FIG. 25); format: cell-based; settings: 32 μg/ml, 60 minutes
Protocol: (§1) FIG. 25 provides PlySs2 activity against different species and strains. Log-phase cultures were exposed to 32 μg/ml PlySs2 for 60 minutes in phosphate buffer. The final OD600 of the treated samples were divided by the final OD600 of the untreated samples to generate the normalized values above. Multiple Staphylococci (including, but not limited to: MRSA, MSSA, and VISA), Streptococci, Listeria, Enterococci, and Bacilli were tested for susceptibility to PlySs2 activity. Escherichia and Pseudomonas were tested as Gram-negative controls.

Pseudomonas = assay: as above; format: cell-based; settings: Gram-negative control
Protocol: as §1

MRSA [2] = assay: rat MRSA wound infection with sterile sand (foreign body); format: in vivo, rats; settings: for CFU/Gram, AVG: 10 mg PlySs2 single dose, 15 rats, after 10 days, not true Avg since < values
Protocol: Animal experiments were initiated by determining the infectious dose of MRSA necessary to cause infection in the rat wound. […] However, when we added a foreign body ([…]), infection occurred at <10^8 CFUs. Specifically, incisions were made in the backs of the rats (5-6 cm in length) and a 2-3 mm incision was made in the underlying tissue. To this was added 100 mg sterile sand and 50 μl of MRSA. The wounds were stapled closed and the animals followed for 10 days and the wounds opened and examined for gross changes and tissue samples taken for bacteriological examination.
Samples (weighed and homogenized tissue) taken from the opened wound yielded about 10^7 CFU MRSA/gram of tissue. This model was very reproducible yielding the same results in at least 10 animals.
We used the model as described above to treat with PlySs2 lysin to determine the effects of the treatment. In this case, half of the animals receiving the MRSA and sand were treated with 10 mg PlySs2 in 50 ul of phosphate buffer (PB), control animals received PB instead 10 minutes after MRSA dosing. The animals were followed for 10 days. At this time the animals were analyzed for gross changes and microbiology. […] This is in sharp contrast to animals treated with a single dose of PlySS2.

[3] = tested on: cultures from the oral cavities of two rats; assay: rat oral cavity microbiota study, drops on culture lawns; format: cell-based, rat oral bacteria; settings: 10 μL PlySs2 drops on BHI agar lawns; the one culture confirmed as S. aureus
S. suis 7997 = assay: PlySs2 biochemical characterization, turbidity reduction (OD600)
L. monocytogenes = assay: CFU studies, bactericidal effect; format: cell-based, Listeria monocytogenes; settings: 128 μg/ml PlySs2, 60 mins
Protocol: Log-phase bacteria were resuspended in buffer A to an OD600 of 0.1 (=0.5 McFarland≈10^8 CFU/ml). PlySs2 was added at 128 μg/ml to polypropylene microtiter plates (Costar) in triplicate for each test organism. Plates were sealed and incubated at 37° C. with shaking every 5 minutes for 1 hour. After 1 hour of incubation, cells were serially diluted in 10-fold increments and plated on BHI. Triplicate controls for each strain were performed with buffer B replacing PlySs2.

B1: ΔPlySs1: truncated PlySs1 lysin, SEQ ID NO:2, N-terminal 254 amino acids: only N-terminal enzymatic and central binding domains (protein, listed as Streptococcus suis)
chain: MTINLETSIRWMSDRVGKVSYSMDYRNGPNSYDCSSAVYYALMAGGAISAGWAVNTEYMHDWLIRNGYVLVAENKPFNAQRHDVCILGKRGYSSGAGGHVVIFVDNVNVIHCNYARNGISIDNYNQVHRGMYYYLYRPANQPSISNKSLDQLVKETLAGVHGNGDTRKASLGSQYEAVMAVINGKASASEKSDEELAREVLAGKHGAGEDRKRSLGPRYEPVQAKVNELLKAKEKPSETAKNEPQTVQFKEDGDL
S. uberis 27598; 6.5 μg/ml
  lysis value after 1 hr (treated/untreated OD600 ratio): 0.42
S. uberis 27598; 13 μg/ml
  lysis value after 1 hr (treated/untreated OD600 ratio): 0.23
S. uberis 27598; 30 μg/ml
  lysis value after 1 hr (treated/untreated OD600 ratio): 0.16
S. uberis 27598; 65 μg/ml
  lysis value after 1 hr (treated/untreated OD600 ratio): 0.14
S. uberis 27598; 130 μg/ml
  lysis value after 1 hr (treated/untreated OD600 ratio): 0.12
S. epidermidis HN1292; 6.5 μg/ml
  lysis value after 1 hr (treated/untreated OD600 ratio): 1.04
S. epidermidis HN1292; 13 μg/ml
  lysis value after 1 hr (treated/untreated OD600 ratio): 1.00
S. epidermidis HN1292; 30 μg/ml
  lysis value after 1 hr (treated/untreated OD600 ratio): 0.96
S. epidermidis HN1292; 65 μg/ml
  lysis value after 1 hr (treated/untreated OD600 ratio): 0.94
S. epidermidis HN1292; 130 μg/ml
  lysis value after 1 hr (treated/untreated OD600 ratio): 0.87
E. faecium EFSK2; 6.5 μg/ml
  lysis value after 1 hr (treated/untreated OD600 ratio): 0.85
E. faecium EFSK2; 13 μg/ml
  lysis value after 1 hr (treated/untreated OD600 ratio): 0.67
E. faecium EFSK2; 30 μg/ml
  lysis value after 1 hr (treated/untreated OD600 ratio): 0.52
E. faecium EFSK2; 65 μg/ml
  lysis value after 1 hr (treated/untreated OD600 ratio): 0.32
E. faecium EFSK2; 130 μg/ml
  lysis value after 1 hr (treated/untreated OD600 ratio): 0.13
S. mutans U159; 6.5 μg/ml
  lysis value after 1 hr (treated/untreated OD600 ratio): 0.95
S. mutans U159; 13 μg/ml
  lysis value after 1 hr (treated/untreated OD600 ratio): 0.99
S. mutans U159; 30 μg/ml
  lysis value after 1 hr (treated/untreated OD600 ratio): 0.94
S. mutans U159; 65 μg/ml
  lysis value after 1 hr (treated/untreated OD600 ratio): 0.76
S. mutans U159; 130 μg/ml
  lysis value after 1 hr (treated/untreated OD600 ratio): 0.85
B. anthracis ΔSterne; 6.5 μg/ml
  lysis value after 1 hr (treated/untreated OD600 ratio): 1.02
B. anthracis ΔSterne; 30 μg/ml
  lysis value after 1 hr (treated/untreated OD600 ratio): 1.02
B. anthracis ΔSterne; 65 μg/ml
  lysis value after 1 hr (treated/untreated OD600 ratio): 0.98
B. anthracis ΔSterne; 130 μg/ml
  lysis value after 1 hr (treated/untreated OD600 ratio): 0.90
S. dysgalactiae GGS; 6.5 μg/ml
  lysis value after 1 hr (treated/untreated OD600 ratio): 0.30
S. dysgalactiae GGS; 13 μg/ml
  lysis value after 1 hr (treated/untreated OD600 ratio): 0.27
S. dysgalactiae GGS; 30 μg/ml
  lysis value after 1 hr (treated/untreated OD600 ratio): 0.15
S. dysgalactiae GGS; 65 μg/ml
  lysis value after 1 hr (treated/untreated OD600 ratio): 0.11
S. dysgalactiae GGS; 130 μg/ml
  lysis value after 1 hr (treated/untreated OD600 ratio): 0.14
S. oralis 35037; 6.5 μg/ml
  lysis value after 1 hr (treated/untreated OD600 ratio): 0.30
S. oralis 35037; 13 μg/ml
  lysis value after 1 hr (treated/untreated OD600 ratio): 0.13
S. oralis 35037; 30 μg/ml
  lysis value after 1 hr (treated/untreated OD600 ratio): 0.08
S. oralis 35037; 65 μg/ml
  lysis value after 1 hr (treated/untreated OD600 ratio): 0.07
S. oralis 35037; 130 μg/ml
  lysis value after 1 hr (treated/untreated OD600 ratio): 0.04

B2: PlySs2: Streptococcus suis prophage lysin, SEQ ID NO:3; N-terminal CHAP domain and C-terminal SH3-type 5 domain (protein, listed as Streptococcus suis)
chain: MTTVNEALNNVRAQVGSGVSVGNGECYALASWYERMISPDATVGLGAGVGWVSGAIGDTISAKNIGSSYNWQANGWTVSTSGPFKAGQIVTLGATPGNPYGHVVIVEAVDGDRLTILEQNYGGKRYPVRNYYSAASYRQQVVHYITPPGTVAQSAPNLAGSRSYRETGTMTVTVDALNVRRAPNTSGEIVAVYKRGESFDYDTVIIDVNGYVWVSYIGGSGKRNYVATGATKDGKRFGNAWGTFK
MRSA [1]
  minimum inhibitory concentration (MIC): 16 µg/mL
Listeria strains
  strains lysed of strains tested: 2 of 6
Pseudomonas
  lytic activity: did not display activity
MRSA [2]; 10 mg PlySs2 single dose 10 minutes after MRSA, wound tissue after 10 days
  CFU/Gram, individual rats P1-P15: <5.00E+01 CFU/Gram (10×) and 9.10E+01 CFU/Gram and 5.00E+01 CFU/Gram and 8.40E+02 CFU/Gram and 3.20E+02 CFU/Gram (2×)
MRSA [2]
  CFU/Gram, AVG: 1.41×10^2 CFU/Gram
MRSA [2]; listed as PLYSS2
  CFU/Gram, AVG: 1.41E+02 CFU/Gram
MRSA [2]; AVG buffer / AVG PlySs2
  CFU Reduction vs Control: CFU Reduction vs Control 3.02E+04
MRSA [2]; PlySs2 vs buffer, wound tissue after 10 days
  reduction of MRSA: > 4 logs
MRSA [2]; single dose of PlySS2, 10 days
  gross changes of wounds: did not exhibit pus or necrosis and exhibited better healing
[3]
  clearing zone around drops on lawns of 6 rat oral cultures: only appeared on one culture
S. suis 7997
  consecutive room temperature to −80° C. freeze-thaws without effect on activity: 10
S. suis 7997; 0-1000 mM NaCl, constant enzyme concentration
  effect of NaCl on bacteriolysis: bacteriolysis decreased from 0-1000 mM NaCl
S. suis 7997; 15 mM Na3PO4, pH 8.0, various EDTA concentrations
  effect of EDTA on lysis: impeded PlySs2-induced lysis
S. suis 7997; 4° C., 15 days
  activity after 15 days of 4° C. incubation: no observable decrease in activity; also recorded: stable
S. suis 7997; 37° C., 24 hours
  activity after incubation at 37° C. for 24 hours: retained full activity; also recorded: stable
S. suis 7997; 37° C., 24 hours, killing of strain 7997
  stability up to 24 hours at 37° C. in buffer: > 90%
S. suis 7997; 37° C., 48 hours
  activity after 48-hour 37° C. incubation: diminished activity
  activity maintained after 48 hours at 37° C.: at least 50%
S. suis 7997; 30 min incubation
  temperature at which activity completely abolished: 60 °C
S. suis 7997; BTP buffer pH 7.0-9.7
  pH of maximal lysis in BTP: 9.7
S. suis 7997; Bis-tris propane (BTP) buffer
  acute activity up to pH: ≤ 9.7
S. suis 7997; PlySs2 32 μg/ml
  activity down to pH: ≥ 6.0
S. suis 7997; data not shown
  effect of excess DTT on activity: no impact
S. suis 7997; phosphate/citrate buffer pH 4.6-8.0, PlySs2 32 μg/ml
  pH of strongest activity: 8.0
S. suis 7997; up to at least 7 months at −80° C.
  activity retained on storage in buffer at −80° C.: ~100%
S. suis 7997; various NaCl concentrations
  NaCl concentration of greatest activity: 0 mM
L. monocytogenes
  reduction in CFU counts: dramatically reduced
